Results published in article PMC5648539 (Science signaling, 2017).
Positions count from the first letter of the chain named.

B1: FLAG-tagged human CXCR4, wild type (receptor, UniProt P61073 1-352, looked up)
chain: MEGISIYTSDNYTEEMGSGDYDSMKEPCFREENANFNKIFLPTIYSIIFLTGIVGNGLVILVMGYQKKLRSMTDKYRLHLSVADLLFVITLPFWAVDAVANWYFGNFLCKAVHVIYTVNLYSSVLILAFISLDRYLAIVHATNSQRPRKLLAEKVVYVGVWIPALLLTIPDFIFANVSEADDRYICDRFYPNDLWVVVFQFQHIMVGLILPGIVILSCYCIIISKLSHSKGHQKRKALKTTVILILAFFACWLPYYIGISIDSFILLEIIKQGCEFENTVHKWISITEALAFFHCCLNPILYAFLGAKFKTSAQHALTSVSRGSSLKILSKGKRGGHSSVSTESESSSFHSS
B2: FLAG-tagged human CXCR4 Ile4Glu/Ile6Glu (receptor, UniProt P61073 1-352, looked up)
chain: B1 chain with I4E, I6E

Target: wild-type CXCL12 (stromal cell-derived factor-1) (UniProt P48061-2 22-89)
Test: radioligand binding

Row | Binder | Kd [nM]
1 | B1 | 1.45
2 | B2 | 45.7
